Experimental data: patent publication US20050287132A1, “Biliverdin reductase fragments and variants, and methods of using biliverdin reductase and such fragments and variants” (University of Rochester, priority 1999, published 2005)
Each block holds one molecule with its values, some of them ahead of it.

Assays:
[1] = test system: PKC; experiment: Effect of BVR and peptides on PKC activity (MBP substrate, kinetic analysis); assay type: biochemical; settings: for Vmax of the PKC reaction with respect to ATP / Vmax of the PKC reaction with respect to MBP: in the presence of 50 μM BVR or peptide; for Km for the substrate (MBP) of the PKC reaction: in the presence of 50 μM peptide; for nature of kinetics with respect to substrate concentration: MBP varied
Description: FIGS. 11A-C are graphs depicting the role of BVR in increasing protein kinase C activity. FIG. 11A depicts the dose-dependence of PKC activity in the presence of BVR or PKC inhibitor peptide (“PKCI”) in an assay system containing 0.5 μg/ml PKC, 50 μM unlabeled ATP, 5 μCi[^32γP]-ATP and 1 mg/ml MBP and carried out as described infra. FIGS. 11B-C are the kinetic analyses of PKC activity carried out with respect to MBP (FIG. 11B) and with respect to ATP (FIG. 11C) in the presence or absence of 50 μM BVR.
FIGS. 12A-C are graphs illustrating the effect of various rBVR fragments on PKC activity. Protein kinase C was incubated at 30° C. with buffer or with the indicated peptides (50 μM) for 15 min prior to addition to a kinase assay using MBP as substrate. FIG. 12A depicts the relative activity for each sample normalizing to that of the PKC and buffer control value. FIGS. 12B-C are the kinetic analyses of PKC with respect to substrate MBP (FIG. 12B) and ATP (FIG. 12C) in the presence or absence of BVR peptide fragments (50 μM). BVR1 peptide corresponds to SEQ. ID. No. 34 and BVR2 peptide corresponds to SEQ. ID. No. 19.
Incubation time was 8 min at 30° C.

[2] = biological target: protein kinase C (a mixture containing equal amounts of isozymes α, β and γ) (Promega); experiment: cell-based or functional assay
[3] = Biliverdin reductase activity of E. coli expressed hBVR wild type and mutants (Example 1); assay type: biochemical, human; settings: for Activity (nmol bilirubin/min/mg) pH 6.7 + NADH: pH 6.7, NADH cofactor; for Activity (nmol bilirubin/min/mg) pH 6.7 + NADH / Activity (nmol bilirubin/min/mg) pH 8.7 + NADPH: 25°; for Activity (nmol bilirubin/min/mg) pH 8.7 + NADPH: pH 8.7, NADPH cofactor; for Activity % pH 6.7 + NADH / Activity % pH 8.7 + NADPH: Cys→Ala mutations; for Activity % pH 6.7 + NADH: wild type = 100, pH 6.7, NADH; for Activity % pH 8.7 + NADPH: wild type = 100, pH 8.7, NADPH
Description: SalI linkers are underlined in each primer. The products were digested with SalI and cloned into the vector pGEX 4T-2. Orientation was determined by restriction analysis and confirmed by sequencing. The ligation places the BVR coding region in frame with the GST protein of the vector. GST-BVR fusion proteins were purified from bacterial clones containing the plasmid, and grown overnight using a glutathione-sepharose 4B column (Pharmacia). The reductase portion of the fusion protein was released by thrombin protease treatment.
Activity was determined as previously described (Kutty et al., J. Biol. Chem. 256:3956-3962 (1981); Huang et al., J. Biol. Chem. 264:7844-7849 (1989), which are hereby incorporated by reference). Activity was determined in a 1 ml assay volume that contained 0.1 M Tris/HCl, pH 8.7 NADPH (100 μM), and biliverdin (5 μM). Reductase activity was also measured using NADH (1 mM) as the cofactor; in this case 0.1 M potassium phosphate pH 6.75, was substituted for Tris/HCl. SDS/PAGE was performed by the method of Laemmli, Nature 227:680-685 (1970), which is hereby incorporated by reference. Western blot analysis was performed using anti-serum to human kidney biliverdin reductase as previously described (Maines et al., Arch. Biochem. Biophys. 300:320-326 (1993), which is hereby incorporated by reference). The relative amounts of immunoreactive protein were determined by scanning the blot using a laser densitometer and comparing the area under the peak for each mutant with the wild type. The rate of activity was measured as the increase in 450 nm absorbance at 25° C. Specific activity is expressed as nmol bilirubin/min/ mg protein.

[4] = Biliverdin reductase catalytic activity of recombinant wild type and mutant hBVR (Example 2, FIG. 3); assay type: biochemical, human; settings: pH/cofactor not stated
Description: FIGS. 3A-C are graphs depicting the effects of mutation of Gly^17, Ser^149, and Lys^296 on BVR catalytic activity. Purified preparations of recombinant wild type and mutant BVR with substitution of Gly^17 (FIG. 3A), Ser^149 (FIG. 3B), or Lys^296 (FIG. 3C) with Ala were assessed for BVR activity at pH 6.5 using NADH as cofactor and at pH 8.7 with NADPH as cofactor. Values presented are in percent wild type activity for each pH. The specific activity of the wild type preparation was 1744 nmol bilirubin produced min^−1 mg^−1 at pH 6.5 and 1147 nmol bilirubin produced min^−1 mg^−1 at pH 8.7. Values presented are representative of 2-4 determinations.
GST-BVR fusion proteins were prepared as described in Example 1. Human kidney biliverdin reductase was purified to homogeneity as described by Maines et al., Arch. Biochem. Biophys. 300:320-326 (1993), which is hereby incorporated by reference. The purified reductase preparations were judged to be homogenous by SDS-PAGE. Protein concentration was determined by the method of Bradford, Anal. Biochem. 72:248-254 (1976), which is hereby incorporated by reference.
Activity was determined as previously described by Huang et al., J. Biol. Chem. 264:7844-7849 (1989), which is hereby incorporated by reference, using NADPH as the cofactor at pH 8.7 in 0.1 M […] or NADH at pH 6.5 in […]. The rate of activity was measured as the increase in 450 nm absorbance at 25° C. Specific activity is expressed in units/mg protein, where 1 unit catalyzes the formation of 1 nmol bilirubin/min.

Molecule: KKRIMHC [peptide 1, ID; No. 18]
Vmax of the PKC reaction with respect to ATP [1]: 4.2 pmol/min
Vmax of the PKC reaction with respect to MBP [1]: 2.92 pmol/min
Km for the substrate (MBP) of the PKC reaction [1]: 0.39 mg/mL
effect on PKC activity ([1]; peptide 50 μM, MBP substrate): stimulated PKC activity
nature of kinetics with respect to substrate concentration ([1]; peptide 50 μM): mixed kinetics

Km for the substrate (MBP) of the PKC reaction [1]: 0.12 mg/mL
Molecule: QKLCHQKK [peptide 2, ID; No. 19]
Vmax of the PKC reaction with respect to ATP [1]: 3.12 pmol/min
Vmax of the PKC reaction with respect to MBP [1]: 1.82 pmol/min
inhibition of PKC activity ([1]; peptide 50 μM, MBP substrate): more than 75%
nature of kinetics with respect to substrate concentration ([1]; peptide 50 μM): uncompetitive

Molecule: RKRCLRRL [PKCI peptide, ID; No. 29, reference compound]
dose dependence of PKC activity (^32P into MBP) ([1]; PKC preincubated 15 min at 30° C., MBP substrate): dose-dependent inhibition of activity
inhibition of PKC activity ([1]; peptide 50 μM, MBP substrate): 90%

inhibition of PKC activity, peptide at the same concentration as BVR peptide 2 [2]: 90%
Molecule: RKRCLRRL [PKC inhibitor peptide RKRCLRRL]

B1: Lys^92/His^93: hBVR with Lys^92His^93→Ala-Ala within the oxidoreductase motif (protein, UniProt P53004 3-296, looked up, variant K92A H93A)
Biliverdin reductase A: AEPERKFGVVVVGVGRAGSVRMRDLRNPHPSSAFLNLIGFVSRRELGSIDGVQQISLEDALSSQEVEVAYICSESSSHEDYIRQFLNAGAAVLVEYPMTLSLAAAQELWELAEQKGKVLHEEHVELLMEEFAFLKKEVVGKDLLKGSLLFTAGPLEEERFGFPAFSGISRLTWLVSLFGELSLVSATLEERKEDQYMKMTVCLETEKKSPLSWIEEKGPGLKRNRYLSFHFKSGSLENVPNVGVNKNIFLKDQNIFVQKLLGQFSEKELAAEKKRILHCLGLAEEIQKYCCSRK
Activity (nmol bilirubin/min/mg) pH 6.7 + NADH [3]: 0 nmol bilirubin/min/mg
reductase activity relative to the control (wild type) ([3]; pH 6.7 with NADH): loss of enzyme activity
Activity (nmol bilirubin/min/mg) pH 8.7 + NADPH [3]: 0 nmol bilirubin/min/mg
reductase activity relative to the control (wild type) ([3]; pH 8.7 with NADPH): loss of enzyme activity

B2: Cys^292^,^293: hBVR construct with Cys^292+Cys^293→Ala mutations (protein, UniProt P53004 3-296, looked up, variant C292A C293A)
Biliverdin reductase A: AEPERKFGVVVVGVGRAGSVRMRDLRNPHPSSAFLNLIGFVSRRELGSIDGVQQISLEDALSSQEVEVAYICSESSSHEDYIRQFLNAGKHVLVEYPMTLSLAAAQELWELAEQKGKVLHEEHVELLMEEFAFLKKEVVGKDLLKGSLLFTAGPLEEERFGFPAFSGISRLTWLVSLFGELSLVSATLEERKEDQYMKMTVCLETEKKSPLSWIEEKGPGLKRNRYLSFHFKSGSLENVPNVGVNKNIFLKDQNIFVQKLLGQFSEKELAAEKKRILHCLGLAEEIQKYAASRK
Activity % pH 6.7 + NADH [3]: 94%
Activity % pH 8.7 + NADPH [3]: 100%

B3: Cys^281: hBVR with Cys^281→Ala within the zinc finger domain (protein, UniProt P53004 3-296, looked up, variant C281A)
Biliverdin reductase A: AEPERKFGVVVVGVGRAGSVRMRDLRNPHPSSAFLNLIGFVSRRELGSIDGVQQISLEDALSSQEVEVAYICSESSSHEDYIRQFLNAGKHVLVEYPMTLSLAAAQELWELAEQKGKVLHEEHVELLMEEFAFLKKEVVGKDLLKGSLLFTAGPLEEERFGFPAFSGISRLTWLVSLFGELSLVSATLEERKEDQYMKMTVCLETEKKSPLSWIEEKGPGLKRNRYLSFHFKSGSLENVPNVGVNKNIFLKDQNIFVQKLLGQFSEKELAAEKKRILHALGLAEEIQKYCCSRK
Activity % pH 6.7 + NADH [3]: 31%
Activity % pH 8.7 + NADPH [3]: 23%

B4: Cys^74,204^,^281,292,293: hBVR construct with all 5 Cys residues combined changed to Ala (protein, UniProt P53004 3-296, looked up, variant C74A C204A C281A C292A C293A)
Biliverdin reductase A: AEPERKFGVVVVGVGRAGSVRMRDLRNPHPSSAFLNLIGFVSRRELGSIDGVQQISLEDALSSQEVEVAYIASESSSHEDYIRQFLNAGKHVLVEYPMTLSLAAAQELWELAEQKGKVLHEEHVELLMEEFAFLKKEVVGKDLLKGSLLFTAGPLEEERFGFPAFSGISRLTWLVSLFGELSLVSATLEERKEDQYMKMTVALETEKKSPLSWIEEKGPGLKRNRYLSFHFKSGSLENVPNVGVNKNIFLKDQNIFVQKLLGQFSEKELAAEKKRILHALGLAEEIQKYAASRK
Activity % pH 6.7 + NADH [3]: 1%
Activity % pH 8.7 + NADPH [3]: 10%

B5: Cys^74: hBVR with Cys^74→Ala within a substrate binding domain (protein, UniProt P53004 3-296, looked up, variant C74A)
Biliverdin reductase A: AEPERKFGVVVVGVGRAGSVRMRDLRNPHPSSAFLNLIGFVSRRELGSIDGVQQISLEDALSSQEVEVAYIASESSSHEDYIRQFLNAGKHVLVEYPMTLSLAAAQELWELAEQKGKVLHEEHVELLMEEFAFLKKEVVGKDLLKGSLLFTAGPLEEERFGFPAFSGISRLTWLVSLFGELSLVSATLEERKEDQYMKMTVCLETEKKSPLSWIEEKGPGLKRNRYLSFHFKSGSLENVPNVGVNKNIFLKDQNIFVQKLLGQFSEKELAAEKKRILHCLGLAEEIQKYCCSRK
Activity % pH 6.7 + NADH [3]: 44%
Activity % pH 8.7 + NADPH [3]: 45%

Km of the PKC reaction for the substrate MBP, peptide 50 µM (control 0.165 mg/ml) [2]: 0.12 mg/mL
Vmax of the PKC reaction with respect to the cofactor ATP, peptide 50 µM (control 3.81 pmol/min) [2]: 3.12 pmol/min
Vmax of the PKC reaction with respect to the substrate MBP, peptide 50 µM (control 2.25 pmol/min) [2]: 1.82 pmol/min
inhibition of PKC activity with MBP as substrate, peptide 50 µM [2]: > 75%
Molecule: QKLCHQKK [BVR peptide Q288KLCHQKK295 (peptide 2)]

Km of the PKC reaction for the substrate MBP, peptide 50 µM (control 0.165 mg/ml) [2]: 0.39 mg/mL
Vmax of the PKC reaction with respect to the cofactor ATP, peptide 50 µM (control 3.81 pmol/min) [2]: 4.2 pmol/min
Vmax of the PKC reaction with respect to the substrate MBP, peptide 50 µM (control 2.25 pmol/min) [2]: 2.92 pmol/min
Molecule: KKRIMHC [BVR peptide K274KRIMHC280 (peptide 1)]

B6: Ser^44: hBVR SEQ. ID. No. 1 with Ser^44→Ala within one of the kinase motifs (protein, listed as Homo sapiens)
chain: MNAEPERKFGVVVVGVGRAGSVRMRDLRNPHPSSAFLNLIGFVARRELGSIDGVQQISLEDALSSQEVEVAYICSESSSHEDYIRQFLNAGKHVLVEYPMTLSLAAAQELWELAEQKGKVLHEEHVELLMEEFAFLKKEVVGKDLLKGSLLFTSDPLEEDRFGFPAFSGISRLTWLVSLFGELSLVSATLEERKEDQYMKMTVCLETEKKSPLSWIEEKGPGLKRNRYLSFHFKSGSLENVPNVGVNKNIFLKDQNIFVQKLLGQFSEKELAAEKKRILHCLGLAEEIQKYCCSRK
enzyme activity [4]: did not display loss of enzyme activity
Activity (nmol bilirubin/min/mg) pH 6.7 + NADH [3]: 7443 nmol bilirubin/min/mg
increase in activity at pH 6.7 with NADH ([3]; pH 6.7, NADH, versus wild type): 2.5 fold
Activity (nmol bilirubin/min/mg) pH 8.7 + NADPH [3]: 333 nmol bilirubin/min/mg
reduction in NADPH-dependent activity ([3]; pH 8.7, NADPH, versus wild type): 70-75%
